# Measured values as given in patent US20240002844.
# Target: T1, recombinant SHN3 (rSHN3, 50-930 aa) (UniProt A2A884)
# T1 sequence: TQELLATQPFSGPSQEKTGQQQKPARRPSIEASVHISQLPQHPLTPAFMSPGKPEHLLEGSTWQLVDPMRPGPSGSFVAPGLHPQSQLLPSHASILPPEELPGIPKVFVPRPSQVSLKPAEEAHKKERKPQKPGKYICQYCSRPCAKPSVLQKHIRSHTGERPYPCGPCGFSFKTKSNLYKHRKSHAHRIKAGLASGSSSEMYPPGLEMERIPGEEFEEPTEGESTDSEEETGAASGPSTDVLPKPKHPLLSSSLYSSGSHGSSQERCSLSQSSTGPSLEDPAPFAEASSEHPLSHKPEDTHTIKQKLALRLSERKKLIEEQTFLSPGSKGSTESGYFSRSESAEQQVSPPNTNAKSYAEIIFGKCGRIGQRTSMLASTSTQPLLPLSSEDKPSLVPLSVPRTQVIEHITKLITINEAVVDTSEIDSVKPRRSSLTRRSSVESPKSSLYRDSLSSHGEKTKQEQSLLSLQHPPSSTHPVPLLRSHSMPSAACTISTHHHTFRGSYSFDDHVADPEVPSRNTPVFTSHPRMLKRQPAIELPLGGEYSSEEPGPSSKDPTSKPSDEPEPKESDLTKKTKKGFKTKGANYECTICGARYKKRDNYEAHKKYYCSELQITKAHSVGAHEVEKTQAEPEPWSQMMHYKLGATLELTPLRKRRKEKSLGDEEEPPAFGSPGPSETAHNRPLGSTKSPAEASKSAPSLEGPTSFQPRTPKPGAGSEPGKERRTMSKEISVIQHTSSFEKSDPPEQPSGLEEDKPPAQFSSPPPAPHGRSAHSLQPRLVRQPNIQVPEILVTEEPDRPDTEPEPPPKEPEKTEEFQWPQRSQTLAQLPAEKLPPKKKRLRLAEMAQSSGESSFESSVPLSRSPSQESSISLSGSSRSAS
# Sequence of recombinant ERK2 (rERK2) (P28482 2-360): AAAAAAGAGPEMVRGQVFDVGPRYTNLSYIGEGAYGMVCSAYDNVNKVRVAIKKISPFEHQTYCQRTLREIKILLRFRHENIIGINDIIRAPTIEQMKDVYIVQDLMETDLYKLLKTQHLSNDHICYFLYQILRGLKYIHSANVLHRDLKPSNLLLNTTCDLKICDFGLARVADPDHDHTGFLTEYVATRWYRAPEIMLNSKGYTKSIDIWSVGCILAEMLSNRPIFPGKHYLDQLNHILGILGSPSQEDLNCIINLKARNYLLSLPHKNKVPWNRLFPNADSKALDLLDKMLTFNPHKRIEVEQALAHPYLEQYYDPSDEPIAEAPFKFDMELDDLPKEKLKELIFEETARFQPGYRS
substance,measurement,value
recombinant ERK2 (rERK2),in vitro kinase assay: rERK2-induced phosphorylation of rSHN3 (FIG. 9C),recombinant SHN3 (rSHN3) was phosphorylated by recombinant ERK2 (rERK2)
same,in vitro kinase assay: rERK2-induced phosphorylation of the ERK substrate ELK1 (FIG. 9C),rSHN3 inhibited rERK2-induced phosphorylation of the ERK substrate ELK1
same,phospho-spectrometry analysis of rERK and rSHN3 (FIG. 9D),"rERK phosphorylates rSHN3 at two serines (810 and 811 aa), one threonine (851 aa), and two serines (911 and 913 aa)"
